Assay results taken from patent publication US20230212587A1, “Mutant Hydroxyphenylpyruvate Dioxygenase Polypeptide, Encoding Gene Thereof and Use Therefor” (Beijing Dabeinong Biotechnology Co., Ltd., priority 2019, published 2023).

B1: PfHPPDm-F372A-02: Pseudomonas fluorescens HPPD mutant F372A, SEQ ID NO: 30 (protein)
chain: MADLYENPMGLMGFEFIEFASPTPGTLEPIFEIMGFTKVATHRSKNVHLYRQGEINLILNNEPNSIASYFAAEHGPSVCGMAFRVKDSQKAYNRALELGAQPIHIDTGPMELNLPAIKGIGGAPLYLIDRFGEGSSIYDIDFVYLEGVERNPVGAGLKVIDHLTHNVYRGRMVYWANFYEKLFNFREARYFDIKGEYTGLTSKAMSAPDGMIRIPLNEESSKGAGQIEEFLMQFNGEGIQHVAFLTDDLVKTWDALKKIGMRFMTAPPDTYYEMLEGRLPDHGEPVDQLQARGILLDGSSVEGDKRLLLQIASETLMGPVFFEFIQRKGDDGFGEGNFKALFESIERDQVRRGVLTAD
modifications: PfHPPDm-F372A Amino Acid Sequence
B2: AsHPPDm-F372A-A110: Avena sativa HPPD with F372A and deletion of alanine at position 110, SEQ ID NO: 412 (protein)
chain: MPPTPATATGAAAAAVTPEHAARSFPRVVRVNPRSDRFPVLSFHHVELWCADAASAAGRFSFALGAPLAARSDLSTGNSAHASLLLRSGALAFLFTAPYAPPPQEAATAATASIPSFSADAARTFAAAHGLAVRSVGVRVADAAEAFRVSVAGGARPAFAPADLGHGFGLAEVELYGDVVLRFVSYPDETDLPFLPGFERVSSPGAVDYGLTRFDHVVGNVPEMAPVIDYMKGFLGFHEFAEFTAEDVGTTESGLNSVVLANNSEAVLLPLNEPVHGTKRRSQIQTYLEYHGGPGVQHIALASNDVLRTLREMRARTPMGGFEFMAPPQAKYYEGVRRIAGDVLSEEQIKECQELGVLVDRDDQGVLLQIATKPVGDRPTFFLEMIQRIGCMEKDEVGQEYQKGGCGGFGKGNFSELFKSIEDYEKSLEVKQSVVAQKS
modifications: AsHPPDm-F372A-A110 Amino Acid Sequence
B3: AsHPPDm-F372A-02: Avena sativa HPPD mutant F372A, SEQ ID NO: 4; gene SEQ ID NO: 6 (protein)
chain: MPPTPATATGAAAAAVTPEHAARSFPRVVRVNPRSDRFPVLSFHHVELWCADAASAAGRFSFALGAPLAARSDLSTGNSAHASLLLRSGALAFLFTAPYAPPPQEAATAAATASIPSFSADAARTFAAAHGLAVRSVGVRVADAAEAFRVSVAGGARPAFAPADLGHGFGLAEVELYGDVVLRFVSYPDETDLPFLPGFERVSSPGAVDYGLTRFDHVVGNVPEMAPVIDYMKGFLGFHEFAEFTAEDVGTTESGLNSVVLANNSEAVLLPLNEPVHGTKRRSQIQTYLEYHGGPGVQHIALASNDVLRTLREMRARTPMGGFEFMAPPQAKYYEGVRRIAGDVLSEEQIKECQELGVLVDRDDQGVLLQIATKPVGDRPTFFLEMIQRIGCMEKDEVGQEYQKGGCGGFGKGNFSELFKSIEDYEKSLEVKQSVVAQKS
modifications: AsHPPDm-F372A Amido Acid Sequence
B4: ZmHPPDm-F372A-02: Zea mays HPPD mutant F372A, SEQ ID NO: 20 (protein)
chain: MPPTPTAAAAGAAVAAASAAEQAAFRLVGHRNFVRFNPRSDRFHTLAFHHVELWCADAASAAGRFSFGLGAPLAARSDLSTGNSAHASLLLRSGSLSFLFTAPYAHGADAATAALPSFSAAAARRFAADHGLAVRAVALRVADAEEAFRTSVAAGARPAFGPVDLGRGFRLAEVELYGDVVLRYVSYPDGAAGEPFLPGFEGVASPGAADYGLSRFDHIVGNVPELAPAAAYFAGFTGFHEFAEFTTEDVGTAESGLNSMVLANNSENVLLPLNEPVHGTKRRSQIQTFLDHHGGPGVQHMALASDDVLRTLREMQARSAMGGFEFMAPPTSDYYDGVRRRAGDVLTEAQIKECQELGVLVDRDDQGVLLQIAPKPVGDRPTLFLEIIQRIGCMERDEKGQEYQKGGCGGFGKGNFSQLFKSIEDYEKSLEAMQAAAAATAQGS
modifications: ZmHPPDm-F372A Amino Acid Sequence

Tested on: Arabidopsis thaliana T1 plants
Experiment: Topramezone tolerance of transgenic Arabidopsis thaliana T1 plants (pesticide damage grade by bleached leaf area, score, resistance evaluation)
Assay type: in vivo
Settings: for Classification and statistics of pesticide damage grade Grade 0 / Classification and statistics of pesticide damage grade Grade 1 / Classification and statistics of pesticide damage grade Grade 2 / Classification and statistics of pesticide damage grade Grade 3 / Classification and statistics of the grade of pesticide damage Grade 0 / Classification and statistics of the grade of pesticide damage Grade 1 / Classification and statistics of the grade of pesticide damage Grade 2 / Classification and statistics of the grade of pesticide damage Grade 3: number of plants (of 16) in this grade; for Classification and statistics of pesticide damage grade Grade 0 / Classification and statistics of pesticide damage grade Grade 1 / Classification and statistics of pesticide damage grade Grade 2 / Classification and statistics of pesticide damage grade Grade 3 / Scores / Resistance evaluation / Classification and statistics of the grade of pesticide damage Grade 0 / Classification and statistics of the grade of pesticide damage Grade 1 / Classification and statistics of the grade of pesticide damage Grade 2 / Classification and statistics of the grade of pesticide damage Grade 3: 7 DAT; for Scores: score for pesticide damage 0-100; for Grade 0 (number of plants) / Grade 1 (number of plants) / Grade 2 (number of plants) / Grade 3 (number of plants) / Resistance Grade / score: mutation combination, Table 8
Outline: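 Herbicide tolerance was judged per plant on a bleaching scale (grade 0 no bleaching to grade 3 fully bleached) 7 DAT. Topramezone doses were 0, 25, 50 and 100 g ai/ha on 18-day-old T1 and wild-type plants.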

[1] = HPPDs from different species, topramezone 25 g ai/ha (1x)
[2] = HPPDs from different species, topramezone 100 g ai/ha (4x)

Row | Molecule | Classification and statistics of pesticide damage grade Grade 0 [1] | Classification and statistics of pesticide damage grade Grade 1 [1] | Classification and statistics of pesticide damage grade Grade 2 [1] | Classification and statistics of pesticide damage grade Grade 3 [1] | Classification and statistics of pesticide damage grade Grade 0 [2] | Classification and statistics of pesticide damage grade Grade 1 [2] | Classification and statistics of pesticide damage grade Grade 2 [2] | Classification and statistics of pesticide damage grade Grade 3 [2] | Grade 0 (number of plants) (topramezone 25 g ai/ha) | Grade 1 (number of plants) (topramezone 25 g ai/ha) | Grade 2 (number of plants) (topramezone 25 g ai/ha) | Grade 3 (number of plants) (topramezone 25 g ai/ha) | Resistance Grade (topramezone 25 g ai/ha) | score (topramezone 25 g ai/ha) | Grade 0 (number of plants) (topramezone 100 g ai/ha) | Grade 1 (number of plants) (topramezone 100 g ai/ha) | Grade 2 (number of plants) (topramezone 100 g ai/ha) | Grade 3 (number of plants) (topramezone 100 g ai/ha) | Resistance Grade (topramezone 100 g ai/ha) | score (topramezone 100 g ai/ha) | further results
1 | B1 | 16 | 0 | 0 | 0 | 12 | 4 | 0 | 0 | 20 | 0 | 0 | 0 | Highly resistant | 0 | 16 | 4 | 0 | 0 | Highly resistant | 7 | Scores [1]: 0; Scores [2]: 8; Resistance evaluation [1]: highly resistant (highly resistant plants (scores 0-15)); Resistance evaluation [2]: highly resistant (highly resistant plants (scores 0-15))
2 | B2 |  |  |  |  |  |  |  |  | 20 | 0 | 0 | 0 | Highly resistant | 0 | 20 | 0 | 0 | 0 | Highly resistant | 0 | 
3 | B3 |  |  |  |  |  |  |  |  | 20 | 0 | 0 | 0 | Highly resistant | 0 | 20 | 0 | 0 | 0 | Highly resistant | 0 | resistance evaluation stated in the text (Arabidopsis thaliana T1 plants sprayed with topramezone, all tested concentrations): highly resistant (highly resistant plants (scores 0-15)); Classification and statistics of the grade of pesticide damage Grade 0 (topramezone 25 g ai/ha (1x)): 16; Classification and statistics of the grade of pesticide damage Grade 1 (topramezone 25 g ai/ha (1x)): 0; Classification and statistics of the grade of pesticide damage Grade 2 (topramezone 25 g ai/ha (1x)): 0; Classification and statistics of the grade of pesticide damage Grade 3 (topramezone 25 g ai/ha (1x)): 0; Classification and statistics of the grade of pesticide damage Grade 0 (topramezone 50 g ai/ha (2x)): 16; Classification and statistics of the grade of pesticide damage Grade 1 (topramezone 50 g ai/ha (2x)): 0; Classification and statistics of the grade of pesticide damage Grade 2 (topramezone 50 g ai/ha (2x)): 0; Classification and statistics of the grade of pesticide damage Grade 3 (topramezone 50 g ai/ha (2x)): 0; Classification and statistics of the grade of pesticide damage Grade 0 (topramezone 100 g ai/ha (4x)): 16; Classification and statistics of the grade of pesticide damage Grade 1 (topramezone 100 g ai/ha (4x)): 0; Classification and statistics of the grade of pesticide damage Grade 2 (topramezone 100 g ai/ha (4x)): 0; Classification and statistics of the grade of pesticide damage Grade 3 (topramezone 100 g ai/ha (4x)): 0; Scores (topramezone 25 g ai/ha (1x)): 0; Scores (topramezone 50 g ai/ha (2x)): 0; Scores (topramezone 100 g ai/ha (4x)): 0; Resistance evaluation (topramezone 25 g ai/ha (1x)): highly resistant (highly resistant plants (scores 0-15)); Resistance evaluation (topramezone 50 g ai/ha (2x)): highly resistant (highly resistant plants (scores 0-15)); Resistance evaluation (topramezone 100 g ai/ha (4x)): highly resistant (highly resistant plants (scores 0-15))
4 | B4 | 16 | 0 | 0 | 0 | 4 | 12 | 0 | 0 |  |  |  |  |  |  |  |  |  |  |  |  | Scores [1]: 0; Scores [2]: 25; Resistance evaluation [1]: highly resistant (highly resistant plants (scores 0-15)); Resistance evaluation [2]: moderately resistant (moderately resistant plants (scores 16-33))
